Test results as given in the supplement of paper PMC7125110.
± gives the standard error. Variants at the floor of the assay were thinned out.

B1: glmS ribozyme (parent)
chain: AUAAAAGCGCCAGAACUACAGAAAUGUAGUUGACGAGGAGGAGGUUUAUCGAAUUUUCGGCGGAUGCCUCCAAA

Key:
Settings in all cases: with glucosamine-6-phosphate
[1] = variants of: B1; experiment: self-cleavage kobs at 40 uM GlcN6P; higher = faster cleavage; RNA array
Procedure, shortened: (§1)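 Glucosamine-6-phosphate in HEPES/KCl/Mg(OAc)2 buffer, at 40 μM to 10 mM, was flowed over barcoded ribozyme variants transcribed in situ by E. coli RNA polymerase on sequenced MiSeq chips. Tracking was through a hybridised Cy3 probe at 37 °C. kobs, kcat and KM came from exponential decay fits and weighted Michaelis–Menten fits of normalised per-tile medians.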

[2] = variants of: B1; experiment: self-cleavage kobs at 2500 uM GlcN6P; higher = faster cleavage; RNA array
Procedure, shortened: as §1

[3] = variants of: B1; experiment: self-cleavage kobs at 160 uM GlcN6P; higher = faster cleavage; RNA array
Procedure, shortened: as §1

[4] = variants of: B1; experiment: self-cleavage kobs at 640 uM GlcN6P; higher = faster cleavage; RNA array
Procedure, shortened: as §1

[5] = variants of: B1; experiment: self-cleavage kobs at 10000 uM GlcN6P; higher = faster cleavage; RNA array
Procedure, shortened: as §1

A6C G29U G32A U45A G60A
self-cleavage kobs at 40 uM GlcN6P [1]: < 1e-05 s⁻¹ | self-cleavage kobs at 2500 uM GlcN6P [2]: < 1e-05 s⁻¹

G35C G43A
self-cleavage kobs at 40 uM GlcN6P [1]: < 1e-05 s⁻¹ | self-cleavage kobs at 160 uM GlcN6P [3]: < 1e-05 s⁻¹ | self-cleavage kobs at 2500 uM GlcN6P [2]: < 1e-05 s⁻¹

A53G U69A
self-cleavage kobs at 40 uM GlcN6P [1]: 0.000147 ± 4e-05 s⁻¹ | self-cleavage kobs at 640 uM GlcN6P [4]: 0.000407 ± 0.0001 s⁻¹ | self-cleavage kobs at 2500 uM GlcN6P [2]: 0.000305 ± 8.4e-05 s⁻¹ | self-cleavage kobs at 10000 uM GlcN6P [5]: 8.92e-05 ± 2.1e-05 s⁻¹

C8G A36U G37U A52U U54A
self-cleavage kobs at 40 uM GlcN6P [1]: < 1e-05 s⁻¹ | self-cleavage kobs at 10000 uM GlcN6P [5]: < 1e-05 s⁻¹

A52U G63C
self-cleavage kobs at 40 uM GlcN6P [1]: < 1e-05 s⁻¹ | self-cleavage kobs at 160 uM GlcN6P [3]: < 1e-05 s⁻¹ | self-cleavage kobs at 640 uM GlcN6P [4]: < 1e-05 s⁻¹ | self-cleavage kobs at 10000 uM GlcN6P [5]: < 1e-05 s⁻¹

G13U G29U A36U U57G
self-cleavage kobs at 40 uM GlcN6P [1]: < 1e-05 s⁻¹ | self-cleavage kobs at 10000 uM GlcN6P [5]: < 1e-05 s⁻¹

A36G G62U
self-cleavage kobs at 40 uM GlcN6P [1]: < 1e-05 s⁻¹ | self-cleavage kobs at 640 uM GlcN6P [4]: < 1e-05 s⁻¹ | self-cleavage kobs at 2500 uM GlcN6P [2]: < 1e-05 s⁻¹ | self-cleavage kobs at 10000 uM GlcN6P [5]: < 1e-05 s⁻¹

C8U C10A C50A
self-cleavage kobs at 40 uM GlcN6P [1]: < 1e-05 s⁻¹

A6C C11G G29U C34G G51C
self-cleavage kobs at 40 uM GlcN6P [1]: < 1e-05 s⁻¹

A14G A53G
self-cleavage kobs at 40 uM GlcN6P [1]: 0.00182 ± 0.00029 s⁻¹ | self-cleavage kobs at 160 uM GlcN6P [3]: 0.00412 ± 0.00073 s⁻¹ | self-cleavage kobs at 640 uM GlcN6P [4]: 0.0226 ± 0.0043 s⁻¹ | self-cleavage kobs at 2500 uM GlcN6P [2]: 0.0146 ± 0.0045 s⁻¹ | self-cleavage kobs at 10000 uM GlcN6P [5]: 0.0452 ± 0.013 s⁻¹

G13A C34A A36U C68G
self-cleavage kobs at 40 uM GlcN6P [1]: 8.42e-05 ± 3e-05 s⁻¹ | self-cleavage kobs at 10000 uM GlcN6P [5]: 6.2e-05 ± 2.4e-05 s⁻¹

U47C C61G C71U
self-cleavage kobs at 40 uM GlcN6P [1]: < 1e-05 s⁻¹ | self-cleavage kobs at 10000 uM GlcN6P [5]: < 1e-05 s⁻¹

U55C G60U C68U
self-cleavage kobs at 40 uM GlcN6P [1]: < 1e-05 s⁻¹ | self-cleavage kobs at 2500 uM GlcN6P [2]: < 1e-05 s⁻¹

A6G C61U
self-cleavage kobs at 40 uM GlcN6P [1]: < 1e-05 s⁻¹ | self-cleavage kobs at 160 uM GlcN6P [3]: < 1e-05 s⁻¹ | self-cleavage kobs at 640 uM GlcN6P [4]: < 1e-05 s⁻¹ | self-cleavage kobs at 2500 uM GlcN6P [2]: < 1e-05 s⁻¹ | self-cleavage kobs at 10000 uM GlcN6P [5]: < 1e-05 s⁻¹

G9A U57G C67U
self-cleavage kobs at 40 uM GlcN6P [1]: < 1e-05 s⁻¹ | self-cleavage kobs at 10000 uM GlcN6P [5]: < 1e-05 s⁻¹

A36G A52G
self-cleavage kobs at 40 uM GlcN6P [1]: < 1e-05 s⁻¹ | self-cleavage kobs at 160 uM GlcN6P [3]: < 1e-05 s⁻¹ | self-cleavage kobs at 640 uM GlcN6P [4]: < 1e-05 s⁻¹ | self-cleavage kobs at 10000 uM GlcN6P [5]: < 1e-05 s⁻¹

A33U A42U C61U
self-cleavage kobs at 40 uM GlcN6P [1]: < 1e-05 s⁻¹

G32U G38A
self-cleavage kobs at 40 uM GlcN6P [1]: < 1e-05 s⁻¹ | self-cleavage kobs at 10000 uM GlcN6P [5]: < 1e-05 s⁻¹

A53U U56C
self-cleavage kobs at 40 uM GlcN6P [1]: 5.21e-05 ± 8e-06 s⁻¹ | self-cleavage kobs at 160 uM GlcN6P [3]: 0.000101 ± 1.5e-05 s⁻¹ | self-cleavage kobs at 640 uM GlcN6P [4]: 0.000782 ± 9.1e-05 s⁻¹ | self-cleavage kobs at 2500 uM GlcN6P [2]: 0.00118 ± 0.00021 s⁻¹ | self-cleavage kobs at 10000 uM GlcN6P [5]: 0.0038 ± 0.00042 s⁻¹

C34G G62A
self-cleavage kobs at 40 uM GlcN6P [1]: < 1e-05 s⁻¹ | self-cleavage kobs at 640 uM GlcN6P [4]: < 1e-05 s⁻¹ | self-cleavage kobs at 2500 uM GlcN6P [2]: < 1e-05 s⁻¹ | self-cleavage kobs at 10000 uM GlcN6P [5]: < 1e-05 s⁻¹

C8A G29U G60U
self-cleavage kobs at 40 uM GlcN6P [1]: < 1e-05 s⁻¹ | self-cleavage kobs at 10000 uM GlcN6P [5]: < 1e-05 s⁻¹

G35C A42U U45C G59U
self-cleavage kobs at 40 uM GlcN6P [1]: < 1e-05 s⁻¹

G35U G60U
self-cleavage kobs at 40 uM GlcN6P [1]: < 1e-05 s⁻¹ | self-cleavage kobs at 160 uM GlcN6P [3]: < 1e-05 s⁻¹ | self-cleavage kobs at 640 uM GlcN6P [4]: < 1e-05 s⁻¹ | self-cleavage kobs at 2500 uM GlcN6P [2]: < 1e-05 s⁻¹ | self-cleavage kobs at 10000 uM GlcN6P [5]: < 1e-05 s⁻¹

A14U A53U C71U
self-cleavage kobs at 40 uM GlcN6P [1]: 9.83e-05 ± 2.7e-05 s⁻¹ | self-cleavage kobs at 160 uM GlcN6P [3]: 0.00021 ± 4.5e-05 s⁻¹ | self-cleavage kobs at 640 uM GlcN6P [4]: 0.000509 ± 8.6e-05 s⁻¹ | self-cleavage kobs at 2500 uM GlcN6P [2]: 0.00145 ± 0.00032 s⁻¹ | self-cleavage kobs at 10000 uM GlcN6P [5]: 0.00546 ± 0.0013 s⁻¹

U30C A52U
self-cleavage kobs at 40 uM GlcN6P [1]: < 1e-05 s⁻¹ | self-cleavage kobs at 640 uM GlcN6P [4]: < 1e-05 s⁻¹

C34U C58G U65G C70A
self-cleavage kobs at 40 uM GlcN6P [1]: 0.000236 ± 8.2e-05 s⁻¹ | self-cleavage kobs at 640 uM GlcN6P [4]: 0.000187 ± 7.4e-05 s⁻¹ | self-cleavage kobs at 10000 uM GlcN6P [5]: 0.000376 ± 0.00015 s⁻¹

C34A G41U G62A
self-cleavage kobs at 40 uM GlcN6P [1]: < 1e-05 s⁻¹ | self-cleavage kobs at 10000 uM GlcN6P [5]: < 1e-05 s⁻¹

C8A G32U
self-cleavage kobs at 40 uM GlcN6P [1]: < 1e-05 s⁻¹ | self-cleavage kobs at 160 uM GlcN6P [3]: < 1e-05 s⁻¹ | self-cleavage kobs at 640 uM GlcN6P [4]: < 1e-05 s⁻¹ | self-cleavage kobs at 10000 uM GlcN6P [5]: < 1e-05 s⁻¹

A6G A15C C16U
self-cleavage kobs at 40 uM GlcN6P [1]: < 1e-05 s⁻¹ | self-cleavage kobs at 10000 uM GlcN6P [5]: 4.37e-05 ± 1.5e-05 s⁻¹

A33G A39U
self-cleavage kobs at 40 uM GlcN6P [1]: < 1e-05 s⁻¹ | self-cleavage kobs at 2500 uM GlcN6P [2]: < 1e-05 s⁻¹ | self-cleavage kobs at 10000 uM GlcN6P [5]: < 1e-05 s⁻¹

G13A A33G
self-cleavage kobs at 40 uM GlcN6P [1]: < 1e-05 s⁻¹ | self-cleavage kobs at 640 uM GlcN6P [4]: < 1e-05 s⁻¹

A6G C8G C10G A52U G60A
self-cleavage kobs at 40 uM GlcN6P [1]: < 1e-05 s⁻¹

G9U G41C
self-cleavage kobs at 40 uM GlcN6P [1]: < 1e-05 s⁻¹ | self-cleavage kobs at 160 uM GlcN6P [3]: < 1e-05 s⁻¹ | self-cleavage kobs at 2500 uM GlcN6P [2]: < 1e-05 s⁻¹

C8U A53U
self-cleavage kobs at 40 uM GlcN6P [1]: < 1e-05 s⁻¹ | self-cleavage kobs at 640 uM GlcN6P [4]: < 1e-05 s⁻¹ | self-cleavage kobs at 10000 uM GlcN6P [5]: < 1e-05 s⁻¹

C8U G51C
self-cleavage kobs at 40 uM GlcN6P [1]: < 1e-05 s⁻¹ | self-cleavage kobs at 160 uM GlcN6P [3]: < 1e-05 s⁻¹ | self-cleavage kobs at 2500 uM GlcN6P [2]: < 1e-05 s⁻¹ | self-cleavage kobs at 10000 uM GlcN6P [5]: < 1e-05 s⁻¹

C8A C11U G38C C50U
self-cleavage kobs at 40 uM GlcN6P [1]: < 1e-05 s⁻¹ | self-cleavage kobs at 640 uM GlcN6P [4]: < 1e-05 s⁻¹ | self-cleavage kobs at 2500 uM GlcN6P [2]: < 1e-05 s⁻¹

C16U G41A G59U
self-cleavage kobs at 40 uM GlcN6P [1]: < 1e-05 s⁻¹ | self-cleavage kobs at 640 uM GlcN6P [4]: < 1e-05 s⁻¹ | self-cleavage kobs at 2500 uM GlcN6P [2]: < 1e-05 s⁻¹ | self-cleavage kobs at 10000 uM GlcN6P [5]: < 1e-05 s⁻¹

C8A A53G G63A
self-cleavage kobs at 40 uM GlcN6P [1]: < 1e-05 s⁻¹ | self-cleavage kobs at 640 uM GlcN6P [4]: < 1e-05 s⁻¹

C10U A52U
self-cleavage kobs at 40 uM GlcN6P [1]: < 1e-05 s⁻¹ | self-cleavage kobs at 160 uM GlcN6P [3]: < 1e-05 s⁻¹ | self-cleavage kobs at 640 uM GlcN6P [4]: < 1e-05 s⁻¹ | self-cleavage kobs at 2500 uM GlcN6P [2]: < 1e-05 s⁻¹ | self-cleavage kobs at 10000 uM GlcN6P [5]: < 1e-05 s⁻¹

U47A U56A
self-cleavage kobs at 40 uM GlcN6P [1]: 0.00024 ± 5.3e-05 s⁻¹ | self-cleavage kobs at 160 uM GlcN6P [3]: 0.000539 ± 0.0001 s⁻¹ | self-cleavage kobs at 640 uM GlcN6P [4]: 0.00196 ± 0.00027 s⁻¹ | self-cleavage kobs at 2500 uM GlcN6P [2]: 0.00548 ± 0.0015 s⁻¹ | self-cleavage kobs at 10000 uM GlcN6P [5]: 0.0235 ± 0.0091 s⁻¹

A42U G62U C71G
self-cleavage kobs at 40 uM GlcN6P [1]: < 1e-05 s⁻¹ | self-cleavage kobs at 10000 uM GlcN6P [5]: < 1e-05 s⁻¹

G43U C68A
self-cleavage kobs at 40 uM GlcN6P [1]: 0.00235 ± 0.00036 s⁻¹ | self-cleavage kobs at 160 uM GlcN6P [3]: 0.00333 ± 0.00054 s⁻¹ | self-cleavage kobs at 640 uM GlcN6P [4]: 0.0194 ± 0.0032 s⁻¹ | self-cleavage kobs at 2500 uM GlcN6P [2]: 0.0175 ± 0.005 s⁻¹ | self-cleavage kobs at 10000 uM GlcN6P [5]: 0.0761 ± 0.024 s⁻¹

A15G G35C C68A
self-cleavage kobs at 40 uM GlcN6P [1]: < 1e-05 s⁻¹

G9U C50U C70U
self-cleavage kobs at 40 uM GlcN6P [1]: < 1e-05 s⁻¹

G60U U69G
self-cleavage kobs at 40 uM GlcN6P [1]: < 1e-05 s⁻¹ | self-cleavage kobs at 640 uM GlcN6P [4]: < 1e-05 s⁻¹ | self-cleavage kobs at 10000 uM GlcN6P [5]: < 1e-05 s⁻¹
